Measurements: article PMC4529168, “Molecular Cloning, Heterologous Expression, and Functional Characterization of an NADPH-Cytochrome P450 Reductase Gene from Camptotheca acuminata, a Camptothecin-Producing Plant” (PLoS ONE, 2015)

Tested on: T1, NC(=O)C1=CN([C@@H]2O[C@H](COP(=O)(O)OP(=O)(O)OC[C@H]3O[C@@H](n4cnc5c(N)ncnc54)[C@H](OP(=O)(O)O)[C@@H]3O)[C@@H](O)[C@H]2O)C=CC1
T1 construct: N-terminal 69 residues (membrane anchor) removed, His6-tag kept (probably N-terminal, 660 residues with tag), expressed in E. coli BL21(DE3), Ni-NTA purified
Assay: purified protein
Type: biochemical, Camptotheca acuminata
Details: 75 μM equine heart cytochrome c, 50 mM Tris-HCl pH 7.4, 25°C

Chain of tCamCPR (Camptotheca acuminata) (chain, as listed by the source): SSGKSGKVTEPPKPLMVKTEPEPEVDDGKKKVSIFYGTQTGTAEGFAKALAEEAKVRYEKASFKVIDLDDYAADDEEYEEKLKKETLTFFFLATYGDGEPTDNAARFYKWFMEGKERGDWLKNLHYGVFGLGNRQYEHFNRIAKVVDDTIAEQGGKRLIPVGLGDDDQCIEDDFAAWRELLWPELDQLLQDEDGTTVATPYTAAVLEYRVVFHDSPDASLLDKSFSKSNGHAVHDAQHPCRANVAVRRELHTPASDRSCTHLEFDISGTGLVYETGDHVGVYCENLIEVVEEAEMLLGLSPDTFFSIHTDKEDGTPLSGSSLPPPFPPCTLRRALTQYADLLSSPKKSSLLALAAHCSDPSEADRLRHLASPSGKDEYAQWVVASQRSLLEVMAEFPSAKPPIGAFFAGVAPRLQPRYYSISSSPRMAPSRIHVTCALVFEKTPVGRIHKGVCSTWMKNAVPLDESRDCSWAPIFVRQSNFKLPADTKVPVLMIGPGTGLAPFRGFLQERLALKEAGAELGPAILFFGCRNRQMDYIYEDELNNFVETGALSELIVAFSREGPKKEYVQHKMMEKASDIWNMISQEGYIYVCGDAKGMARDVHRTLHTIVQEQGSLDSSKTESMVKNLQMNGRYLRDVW

Question: For tCamCPR (Camptotheca acuminata), which Km is on record?
Answer: The Km was 18.7 ± 3.6 µM.
